For four substances, IC50 and response results are on record in article PMC2816707.

For test [1], the target named is Recombinant human VEGF165 (human) (UniProt P15692). The experiment in a line: ELISA; inhibition of VEGF/VEGFR-2 interaction. Background: In an ELISA, binding on a coated surface is turned into a signal by an enzyme label.
For the next test, the target named is Bevacizumab. The experiment in a line: ELISA. As to conditions: point at the highest antibody concentration, about 13.3 nM (read from x axis); VEGF captured on ELISA plate; parent: est. 0.86; read off a plot.
For a further test, the target named is humanized EBV321. The experiment in a line: ELISA. As to conditions: point at the highest antibody concentration, about 13.3 nM (read from x axis); VEGF captured on ELISA plate; parent: est. 0.66; read off a plot.

What is called pIC50 is the IC50 on a negative log10 scale, so that one unit is a factor of ten.

pIC50: −log10 of the molar value.

Sequence of Recombinant human VEGF165 (human) (P15692 other isoform, or with tags, fused parts or gaps): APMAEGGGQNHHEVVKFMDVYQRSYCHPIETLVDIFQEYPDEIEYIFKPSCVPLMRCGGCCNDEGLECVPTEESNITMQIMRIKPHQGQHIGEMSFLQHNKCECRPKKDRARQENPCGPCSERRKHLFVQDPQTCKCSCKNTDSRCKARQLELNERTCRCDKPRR
Sequence of rabbit IgG Fc-hVEGF (human VEGF165) fusion protein, wild type (from UniProt P15692-4) G88A; Q89A (P15692 whole entry, looked up, stated change not applied, the tested form may be a part): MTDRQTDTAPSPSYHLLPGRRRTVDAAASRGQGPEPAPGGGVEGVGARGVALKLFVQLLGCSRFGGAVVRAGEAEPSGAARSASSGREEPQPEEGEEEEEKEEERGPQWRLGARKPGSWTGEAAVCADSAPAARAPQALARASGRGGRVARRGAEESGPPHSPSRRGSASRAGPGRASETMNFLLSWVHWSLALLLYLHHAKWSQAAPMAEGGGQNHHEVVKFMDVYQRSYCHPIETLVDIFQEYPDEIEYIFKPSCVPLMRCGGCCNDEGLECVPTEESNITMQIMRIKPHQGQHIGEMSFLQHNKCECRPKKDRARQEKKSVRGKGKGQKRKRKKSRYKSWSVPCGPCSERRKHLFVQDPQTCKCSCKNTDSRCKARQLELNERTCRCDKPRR
Sequence of rabbit IgG Fc-hVEGF (human VEGF165) fusion protein, wild type (from UniProt P15692-4) I46A (P15692 whole entry, looked up, stated change not applied, the tested form may be a part): as above
Sequence of rabbit IgG Fc-hVEGF (human VEGF165) fusion protein, wild type (from UniProt P15692-4) G88A (P15692 whole entry, looked up, stated change not applied, the tested form may be a part): as above

As to Bevacizumab, the pIC50 in test [1] was 9.05. Turning to “rabbit IgG Fc-hVEGF (human VEGF165) fusion protein, wild type (from UniProt P15692-4) G88A”, the response with Bevacizumab was 0.57 OD (405nm). Take “rabbit IgG Fc-hVEGF (human VEGF165) fusion protein, wild type (from UniProt P15692-4) G88A; Q89A”: the response with humanized EBV321 is 0.76 OD (405nm); with Bevacizumab it was 0.13 OD (405nm). For the substance “rabbit IgG Fc-hVEGF (human VEGF165) fusion protein, wild type (from UniProt P15692-4) I46A”, in the test with Bevacizumab, the response was 0.88 OD (405nm).
